Biological target: MBP-DIC1 (UniProt O14576 1-645)
Experiment: pull-down

MBP-DIC1, sequence (O14576 whole entry): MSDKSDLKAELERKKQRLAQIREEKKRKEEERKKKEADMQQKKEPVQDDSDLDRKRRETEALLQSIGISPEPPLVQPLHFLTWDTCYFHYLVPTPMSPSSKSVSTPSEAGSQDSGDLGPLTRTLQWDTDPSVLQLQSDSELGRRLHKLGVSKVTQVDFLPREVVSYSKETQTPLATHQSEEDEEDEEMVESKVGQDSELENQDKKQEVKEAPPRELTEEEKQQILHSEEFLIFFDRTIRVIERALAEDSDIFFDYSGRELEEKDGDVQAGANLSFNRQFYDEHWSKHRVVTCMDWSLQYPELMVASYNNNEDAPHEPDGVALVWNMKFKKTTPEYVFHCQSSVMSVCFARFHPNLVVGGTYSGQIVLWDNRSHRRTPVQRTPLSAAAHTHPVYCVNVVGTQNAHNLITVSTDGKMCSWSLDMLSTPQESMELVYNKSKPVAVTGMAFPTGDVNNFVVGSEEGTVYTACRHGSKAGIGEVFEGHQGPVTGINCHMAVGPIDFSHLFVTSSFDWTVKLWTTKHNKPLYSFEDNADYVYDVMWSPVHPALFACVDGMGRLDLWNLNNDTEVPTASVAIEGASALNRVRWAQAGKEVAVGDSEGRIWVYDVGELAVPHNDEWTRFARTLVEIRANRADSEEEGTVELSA

B1: GST-CSN7A (natural protein)
chain: MSAEVKVTGQNQEQFLLLAKSAKGAALATLIHQVLEAPGVYVFGELLDMPNVRELAESDFASTFRLLTVFAYGTYADYLAEARNLPPLTEAQKNKLRHLSVVTLAAKVKCIPYAVLLEALALRNVRQLEDLVIEAVYADVLRGSLDQRNQRLEVDYSIGRDIQRQDLSAIARTLQEWCVGCEVVLSGIEEQVSRANQHKEQQLGLKQQIESEVANLKKTIKVTTAAAAAATSQDPEQHLTELREPAPGTNQRQPSKKASKGKGLRGSAKIWSKSN
B1: binds.

From doi:10.1101/2025.04.08.647777 (bioRxiv, 2025)
